In patent US20200095340A1:

B1: anti-DLL3 trispecific protein 1B09 (protein, part only; not given: anti-CD3 and anti-albumin domains, part only)
chain, part: EVQLVESGGGLVQPGGSLTLSCVASGSTSSINAMAWYRRAPGKQRELVAGISSDGSKVYVDSVKGRFTISRDNAKNSVYLQMNSLRAEDTAVYYCYYFRTVSGSSMRYWGQGTLVTVSSGGGGSGGGSGGGGSGGGSHHHHHH
B2: anti-DLL3 trispecific protein 4B09 (protein, part only; not given: anti-CD3 fragment and anti-albumin sdAb, part only)
chain, part: EVQLVESGGGLVQPGGSLTLSCAASGSSVSFLSMAWYRQAPGKKRELVAGISADGSTDYISSVKGRFTISRDNAKNSVYLQMNSLRAEDTAVYYCYAYSWTTRYTYWGQGTLVTVSSGGGGSGGGSGGGGSGGGSHHHHHH
B3: anti-DLL3 trispecific protein 2D011 (protein, part only; not given: anti-CD3 fragment and anti-albumin sdAb, part only)
chain, part: EVQLVESGGGLVQPGGSLTLSCVASGTTSSINAMGWYRRAPGKQRELVAGISSDGSKVYADSVKGRFTISRDNAKNSVYLQMNSLRAEDTAVYYCYYFRTVWGSSMRYWGQGTLVTVSSGGGGSGGGSGGGGSGGGSHHHHHH
B4: anti-DLL3 trispecific protein 2A04 (protein, part only; not given: anti-CD3 fragment and anti-albumin domain, part only)
chain, part: EVQLVESGGGLVQPGGSLTLSCVASGSTSSINAMAWYRRAPGKQRELVAGISSDGSKVYTDSVKGRFTISRDNAKNSVYLQMNSLRAEDTAVYYCYYFRTTSGSSMRYWGQGTLVTVSSGGGGSGGGSGGGGSGGGSHHHHHH
B5: anti-DLL3 trispecific protein 1A06 (protein, part only; not given: anti-CD3 fragment and anti-albumin sdAb, part only)
chain, part: EVQLVESGGGLVQPGGSLTLSCVASGSTSSINAMGWYRRAPGKQRELAAGISSDGSSVYADSVKGRFTISRDNAKNSVYLQMNSLRAEDTAVYYCYYFRTVSGSSKRYWGQGTLVTVSSGGGGSGGGSGGGGSGGGSHHHHHH
B6: anti-DLL3 trispecific protein 4A011 (protein, part only; not given: CD3 binder and albumin binder, part only)
chain, part: EVQLVESGGGLVQPGGSLTLSCAASGSKVSFLSMAWYRQAPGKKRELVAGISADGSTTYIDSVKGRFTISRDNAKNSVYLQMNSLRAEDTAVYYCYAYRWKTRYTYWGQGTLVTVSSGGGGSGGGSGGGGSGGGSHHHHHH
B7: anti-DLL3 trispecific protein 2G03 (protein, part only; not given: CD3 binder and albumin binder, part only)
chain, part: EVQLVESGGGLVQPGGSLTLSCVASGSTSSINAMGWYRRAPGKQRELVAGISSDGSLVYADSVKGRFTISRDNAKNSVYLQMNSLRAEDTAVYYCYYFRTVSGSSMRAWGQGTLVTVSSGGGGSGGGSGGGGSGGGSHHHHHH
B8: anti-DLL3 trispecific protein 2B07 (protein, part only; not given: CD3 fragment and albumin sdAb, part only)
chain, part: EVQLVESGGGLVQPGGSLTLSCVASGSTSSINAFGWYRRAPGKQRELVAGISSDGSKVYADSVKGRFTISRDNAKNSVYLQMNSLRAEDTAVYYCYYFRTVRGSSMRYWGQGTLVTVSSGGGGSGGGSGGGGSGGGSHHHHHH
B9: anti-DLL3 trispecific protein 1B011 (protein, part only; not given: CD3 binder and albumin binder, part only)
chain, part: EVQLVESGGGLVQPGGSLTLSCVASGSTSRINAMGWYRRAPGKQRELVAGISSDGSKVYADSVKGRFTISRDNAKNSVYLQMNSLRAEDTAVYYCYYFRTVYGSSMRYWGQGTLVTVSSGGGGSGGGSGGGGSGGGSHHHHHH
B10: anti-DLL3 trispecific protein 1H01 (protein, part only; not given: CD3 binder and albumin binder, part only)
chain, part: EVQLVESGGGLVQPGGSLTLSCVASGSTSSINAMAWYRRAPGKQRELAAGISSDNSKVYADSVKGRFTISRDNAKNSVYLQMNSLRAEDTAVYYCYYFRTRSGSSMRYWGQGTLVTVSSGGGGSGGGSGGGGSGGGSHHHHHH
B11: anti-DLL3 trispecific protein 1E010 (protein, part only; not given: anti-CD3 fragment and anti-albumin sdAb, part only)
chain, part: EVQLVESGGGLVQPGGSLTLSCVASGSVSSINAMGWYRRAPGKQRELVAGISSDGSKVYIDSVKGRFTISRDNAKNSVYLQMNSLRAEDTAVYYCYYFRTVSGLSMRYWGQGTLVTVSSGGGGSGGGSGGGGSGGGSHHHHHH
B12: anti-DLL3 trispecific protein 4F010 (protein, part only; not given: anti-CD3 and anti-albumin domains, part only)
chain, part: EVQLVESGGGLVQPGGSLTLSCAASGSSVSFLSMAWYRQAPGKKRELVAGISIDGSTDYIKSVKGRFTISRDNAKNSVYLQMNSLRAEDTAVYYCYAYRWTTRYRYWGQGTLVTVSSGGGGSGGGSGGGGSGGGSHHHHHH
B13: anti-DLL3 trispecific protein 1D01 (protein, part only; not given: CD3 binder and albumin binder, part only)
chain, part: EVQLVESGGGLVQPGGSLTLSCVASGSTSDINAMGWYRRAPGKQRELVAGISSDKSKVYADSVKGRFTISRDNAKNSVYLQMNSLRAEDTAVYYCYYFRTVRGSSMRYWGQGTLVTVSSGGGGSGGGSGGGGSGGGSHHHHHH
B14: anti-DLL3 trispecific protein 1F05 (protein, part only; not given: CD3 fragment and albumin sdAb, part only)
chain, part: EVQLVESGGGLVQPGGSLTLSCVASGSTRSINAMGWYRRAPGKQRELVAGISSDGSKVYADSVKGRFTISRDNAKNSVYLQMNSLRAEDTAVYYCYYFHTVSGSSMRYWGQGTLVTVSSGGGGSGGGSGGGGSGGGSHHHHHH
B15: anti-DLL3 trispecific protein 1D03 (protein, part only; not given: CD3 binder and albumin binder, part only)
chain, part: EVQLVESGGGLVQPGGSLTLSCVASGSTSSINAIGWYRRAPGKQRELVAGISSDGSKVLADSVKGRFTISRDNAKNSVYLQMNSLRAEDTAVYYCYYFRIVSGSSMGYWGQGTLVTVSSGGGGSGGGSGGGGSGGGSHHHHHH
B16: anti-DLL3 trispecific protein 4D011 (protein, part only; not given: anti-CD3 fragment and anti-albumin sdAb, part only)
chain, part: EVQLVESGGGLVQPGGSLTLSCAASGSSVRFLSMAWYRQAPGKKRELVAGISVDGSTDYIDSVKGRFTISRDNAKNSVYLQMNSLRAEDTAVYYCYAYRWRTRYTYWGQGTLVTVSSGGGGSGGGSGGGGSGGGSHHHHHH
B17: anti-DLL3 trispecific protein 1F012 (protein, part only; not given: anti-CD3 fragment and anti-albumin sdAb, part only)
chain, part: EVQLVESGGGLVQPGGSLTLSCVASGLTSSINAMGWYRRAPGKQRELVAGISSDGSKVYQDSVKGRFTISRDNAKNSVYLQMNSLRAEDTAVYYCYYFRTNSGSSMRYWGQGTLVTVSSGGGGSGGGSGGGGSGGGSHHHHHH
B18: anti-DLL3 trispecific protein 3C08 (protein, part only; not given: anti-CD3 fragment and anti-albumin sdAb, part only)
chain, part: EVQLVESGGGLVQPGGSLTLSCAASGSSVKFLSMAWYRQAPGKKRELVAGISLDGSTDYIDSVKGRFTISRDNAKNSVYLQMNSLRAEDTAVYYCYAYRWTGRYTYWGQGTLVTVSSGGGGSGGGSGGGGSGGGSHHHHHH
B19: anti-DLL3 trispecific protein 2F03 (protein, part only; not given: anti-CD3 fragment and anti-albumin sdAb, part only)
chain, part: EVQLVESGGGLVQPGGSLTLSCVASGSTSSINAMAWYRRAPGKQRELAAGISSDNSKVYADSVKGRFTISRDNAKNSVYLQMNSLRAEDTAVYYCYYFRTVGGSSMRYWGQGTLVTVSSGGGGSGGGSGGGGSGGGSHHHHHH
B20: anti-DLL3 trispecific protein 4D08 (protein, part only; not given: anti-CD3 and anti-albumin domains, part only)
chain, part: EVQLVESGGGLVQPGGSLTLSCAASGSSVNFLSMAWYRQAPGKKRELVAGISADGSTHYIDSVKGRFTISRDNAKNSVYLQMNSLRAEDTAVYYCYAYRWLTRYTYWGQGTLVTVSSGGGGSGGGSGGGGSGGGSHHHHHH
B21: anti-DLL3 trispecific protein 3D07 (protein, part only; not given: anti-CD3 and anti-albumin domains, part only)
chain, part: EVQLVESGGGLVQPGGSLTLSCAASGSSVRFLSMAWYRQAPGKKRELVAGISADGSTDYIDSVKGRFTISRDNAKNSVYLQMNSLRAEDTAVYYCYAYSWTTRYTYWGQGTLVTVSSGGGGSGGGSGGGGSGGGSHHHHHH
B22: anti-DLL3 trispecific protein 2D07 (protein, part only; not given: anti-CD3 fragment and anti-albumin sdAb, part only)
chain, part: EVQLVESGGGLVQPGGSLTLSCVASGSTSSINAVGWYRRAPGKQRELVAGISSDGTKVYRDSVKGRFTISRDNAKNSVYLQMNSLRAEDTAVYYCYYFRTVQGSSMRYWGQGTLVTVSSGGGGSGGGSGGGGSGGGSHHHHHH
B23: anti-DLL3 trispecific protein 2E02 (protein, part only; not given: anti-CD3 fragment and anti-albumin sdAb, part only)
chain, part: EVQLVESGGGLVQPGGSLTLSCVASGSTSAINAMGWYRRAPGKQRELVAGISSDGSKVYVDSVKGRFTISRDNAKNSVYLQMNSLRAEDTAVYYCYYFRTVSGSSQRYWGQGTLVTVSSGGGGSGGGSGGGGSGGGSHHHHHH
B24: anti-DLL3 trispecific protein 4C011 (protein, part only; not given: anti-CD3 and anti-albumin domains, part only)
chain, part: EVQLVESGGGLVQPGGSLTLSCAASGSRVSFLSMAWYRQAPGKKRELVAGISADGSTVYIDSVKGRFTISRDNAKNSVYLQMNSLRAEDTAVYYCYAYRWTRRYTYWGQGTLVTVSSGGGGSGGGSGGGGSGGGSHHHHHH
B25: anti-DLL3 trispecific protein 2C08 (protein, part only; not given: anti-CD3 and anti-albumin domains, part only)
chain, part: EVQLVESGGGLVQPGGSLTLSCVASGSTSRINAMGWYRRAPGKQRELVAGISSDGSKVYQDSVKGRFTISRDNAKNSVYLQMNSLRAEDTAVYYCYYFRRVSGSSMRYWGQGTLVTVSSGGGGSGGGSGGGGSGGGSHHHHHH
B26: anti-DLL3 trispecific protein 1C03 (protein, part only; not given: anti-CD3 and anti-albumin domains, part only)
chain, part: EVQLVESGGGLVQPGGSLTLSCVASGSTSSINAMAWYRRAPGKQRELVAGISSDNSKVYADSVKGRFTISRDNAKNSVYLQMNSLRAEDTAVYYCYYFRTVGGSSMRYWGQGTLVTVSSGGGGSGGGSGGGGSGGGSHHHHHH
B27: anti-DLL3 trispecific protein 2H07 (protein, part only; not given: anti-CD3 fragment and anti-albumin sdAb, part only)
chain, part: EVQLVESGGGLVQPGGSLTLSCVASGSTSSINAVGWYRRAPGKQRELVAGISSDGSTVYADSVKGRFTISRDNAKNSVYLQMNSLRAEDTAVYYCYYFRTVSGHSMRYWGQGTLVTVSSGGGGSGGGSGGGGSGGGSHHHHHH
B28: anti-DLL3 trispecific protein 4H04 (protein, part only; not given: anti-CD3 fragment and anti-albumin sdAb, part only)
chain, part: EVQLVESGGGLVQPGGSLTLSCAASGSSVKFLSMAWYRQAPGKKRELVAGVSADGSTDYIDSVKGRFTISRDNAKNSVYLQMNSLRAEDTAVYYCYAYEWTTRYTYWGQGTLVTVSSGGGGSGGGSGGGGSGGGSHHHHHH
B29: anti-DLL3 trispecific protein 1C02 (protein, part only; not given: anti-CD3 fragment and anti-albumin sdAb, part only)
chain, part: EVQLVESGGGLVQPGGSLTLSCVASGSTSSINAMAWYRRAPGKQRELVAGISSDGSKVYSDSVKGRFTISRDNAKNSVYLQMNSLRAEDTAVYYCYYFRTVSGSSMRSWGQGTLVTVSSGGGGSGGGSGGGGSGGGSHHHHHH
B30: anti-DLL3 trispecific protein 2C07 (protein, part only; not given: anti-CD3 and anti-albumin domains, part only)
chain, part: EVQLVESGGGLVQPGGSLTLSCVASGSTSSINAMAWYRRAPGKQRELVAGISSDGSKVYADSVKGRFTISRDNAKNSVYLQMNSLRAEDTAVYYCYYFRSVSGSSMRYWGQGTLVTVSSGGGGSGGGSGGGGSGGGSHHHHHH
B31: anti-DLL3 trispecific protein 1H011 (protein, part only; not given: anti-CD3 and anti-albumin domains, part only)
chain, part: EVQLVESGGGLVQPGGSLTLSCVASGSTSSINAIGWYRRAPGKQRELVAGISSDGSKVYNDSVKGRFTISRDNAKNSVYLQMNSLRAEDTAVYYCYYFRTQSGSSMRYWGQGTLVTVSSGGGGSGGGSGGGGSGGGSHHHHHH

Biological target: biotinylated human DLL3 protein expressed as a human IgG1 fusion protein (human) (UniProt Q9NYJ7)
Sequence (Q9NYJ7 other isoform, or with tags, fused parts or gaps): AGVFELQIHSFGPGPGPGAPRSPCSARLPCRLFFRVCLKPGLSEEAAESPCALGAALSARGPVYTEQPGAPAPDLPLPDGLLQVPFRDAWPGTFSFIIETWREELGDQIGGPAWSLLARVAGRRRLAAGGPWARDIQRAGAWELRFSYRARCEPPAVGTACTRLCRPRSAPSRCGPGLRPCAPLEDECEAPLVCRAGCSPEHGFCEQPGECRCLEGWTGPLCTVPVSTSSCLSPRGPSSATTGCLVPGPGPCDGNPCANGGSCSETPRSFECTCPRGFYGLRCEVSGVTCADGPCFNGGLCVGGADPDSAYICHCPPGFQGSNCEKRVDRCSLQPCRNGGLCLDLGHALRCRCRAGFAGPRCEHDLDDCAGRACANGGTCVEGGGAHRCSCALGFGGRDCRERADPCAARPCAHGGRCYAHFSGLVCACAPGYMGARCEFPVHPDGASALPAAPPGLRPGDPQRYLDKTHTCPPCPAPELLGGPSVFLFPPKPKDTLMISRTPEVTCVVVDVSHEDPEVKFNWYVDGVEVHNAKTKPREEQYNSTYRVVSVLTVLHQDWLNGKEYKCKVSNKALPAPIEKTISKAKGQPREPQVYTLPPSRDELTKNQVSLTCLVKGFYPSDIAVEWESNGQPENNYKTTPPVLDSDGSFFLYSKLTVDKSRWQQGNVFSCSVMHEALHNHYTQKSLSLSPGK
Experiment: Octet BLI; biotinylated huDLL3-IgG1 fusion on streptavidin tips; single 50 nM; conditioned medium

Binder | Kd [nM]
B1 | 5.4
B2 | 5.4
B3 | 5.4
B4 | 5.6
B5 | 5.6
B6 | 5.6
B7 | 5.6
B8 | 5.7
B9 | 5.7
B10 | 5.7
B11 | 5.7
B12 | 5.8
B13 | 5.8
B14 | 5.8
B15 | 5.8
B16 | 5.8

Binder | Kd [nM]
B17 | 5.8
B18 | 5.9
B19 | 5.9
B20 | 5.9
B21 | 5.9
B22 | 6
B23 | 6
B24 | 6
B25 | 6.1
B26 | 6.1
B27 | 6.1
B28 | 6.1
B29 | 6.2
B30 | 6.2
B31 | 6.2
